Laboratory results as given in publication PMC12311110 (Nature Communications, 2025).

Legend:
hRetromer = target: T1, hRetromer (Homo sapiens, UniProt O75436+Q96QK1+Q9UBQ0); test: Isothermal titration calorimetry (ITC) of binding to Retromer; details: ITC, 25 °C, 530 µM TBC1D13 titrated into 14 µM Retromer, mean of triplicate titrations
T1 construct: GST (pGEX4T-2, thrombin site plus linker) (N, cleaved yes); made in house; host or cells: E. coli BL21 (DE3)
Experimental: All the bacteria constructs were expressed in BL21 (DE3) cells using the autoinduction method. In brief, cultures grown in complex medium were incubated at 37 °C for 4 h, followed by overnight growth at 20 °C before harvesting for purification. […] In all cases, the soluble fractions clarified by centrifugation were loaded onto pre-equilibrated glutathione sepharose (GE healthcare) for initial purification. For Retromer, an additional Talon® resin purification step was performed to ensure the correct stoichiometry. GST-tag removal was carried out co-column overnight by adding thrombin for Human Retromer and PreScission protease for TBC1D13. The GST-tag removed fraction was further purified by size-exclusion chromatography (SEC) using a Superdex 200 (16/600) column (GE Healthcare) equilibrated with buffer containing 50 mM Tris-HCl pH 7.5, 200 mM NaCl, 2 mM β-ME.
The effect of cyclic peptide was assessed by pre-mixing 140 µM RT-D1 into 14 µM Retromer before titrating with 1 mM of native DENND4C1189-1206 peptide. For the binding experiment between Retromer and TBC1D13, 530 µM of TBC1D13 was titrated into 14 µM Retromer. The effect of the cyclic peptide was tested using the same concentration of RT-D1 as described above. All ITC experiments consisted of an initial 0.4 μl (not used in data processing), followed by 12 serial injections of 3.22 μl each with 180 sec intervals. […]

[1] = tested on: GLUT1, LAT1, KIDINS220, ATP7A, CTR1 surface levels in HeLa cells; test: Surface biotinylation and streptavidin purification: cell surface protein levels; assay type: cell-based, human; details: Hela cells transduced with GFP-RAB10 T23N; PAR+GFP = 100; mean of n = 3
Experimental: For every kind of protein extraction, buffers were pre-chilled, and cells and samples placed on ice. For basic western blot (WB), cells were lysed in ~ pH 7.2 phosphate buffered saline (PBS) with 1% (v/v) Triton X-100 and protease inhibitors (Thermo Fisher, A32955). The protein concentration was determined with a bicinchoninic acid (BCA) assay kit (Thermo Fisher, 23225) and equal amounts were denaturised (LDS Sample buffer (Thermo Fisher, NP0008), 3% β-mercaptoethanol (Sigma-Aldrich, M6250), 10 min at 95 °C) and resolved by SDS-PAGE on NuPAGE 4–12% precast gels (Invitrogen, NP0336BOX). Protein samples were then transferred onto methanol-activated polyvinylidene fluoride (PVDF) membrane (Immobilon-FL membrane, pore size 0.45μm; Millipore, IPFL00010). The membrane was blocked, then sequentially labelled with primary and secondary antibodies. Fluorescence detected by scanning with a LI-COR Odyssey scanner and Image Studio analysis software (LI-COR Biosciences). Typically, we performed WB in where a single blot is simultaneously probed with antibodies against 2 proteins of interest (distinct antibody species), followed by visualisation with the corresponding secondary antibodies conjugated to distinct spectral dyes. All steps were carried out on ice to prevent surface protein internalisation. […] The protein concentration was determined by BCA. […]

B1: hTBC1D13TBC: recombinant full-length human TBC1D13, RAB35 GAP, expressed in bacteria (protein)
chain: MSSLHKSRIADFQDVLKEPSIALEKLRELSFSGIPCEGGLRCLCWKILLNYLPLERASWTSILAKQRELYAQFLREMIIQPGIAKANMGVSREDVTFEDHPLNPNPDSRWNTYFKDNEVLLQIDKDVRRLCPDISFFQRATDYPCLLILDPQNEFETLRKRVEQTTLKSQTVARNRSGVTNMSSPHKNSVPSSLNEYEVLPNGCEAHWEVVERILFIYAKLNPGIAYVQGMNEIVGPLYYTFATDPNSEWKEHAEADTFFCFTNLMAEIRDNFIKSLDDSQCGITYKMEKVYSTLKDKDVELYLKLQEQNIKPQFFAFRWLTLLLSQEFLLPDVIRIWDSLFADDNRFDFLLLVCCAMLMLIREQLLEGDFTVNMRLLQDYPITDVCQILQKAKELQDSK
modifications: left off: GST, end not stated, cleaved
notes: recombinant full-length human TBC1D13, RAB35 GAP, expressed in bacteria
-TΔS (hRetromer): 1.0 ± 1.4 kcal/mol
Kd (hRetromer; single-site binding model, read-out: Kd): 6.3 ± 1.2 µM

B2: GFP-RAB10T23N (protein, UniProt P61026 1-200, looked up, variant T23N)
Ras-related protein Rab-10: MAKKTYDLLFKLLLIGDSGVGKNCVLFRFSDDAFNTTFISTIGIDFKIKTVELQGKKIKLQIWDTAGQERFHTITTSYYRGAMGIMLVYDITNGKSFENISKWLRNIDEHANEDVERMLLGNKCDMDDKRVVPKGKGEQIAREHGIRFFETSAKANINIEKAFLTLAEDILRKTPVKEPNSENVDISSGGGVTGWKSKCC
modifications: GFP fusion
CTR1 Surface (LAT1 normalized) [1]: 77.05
